Data published in patent US20250304965A1, “DOUBLE-STRANDED RNA MOLECULE AND PHARMACEUTICAL USE THEREOF” (MACAU UNIVERSITY OF SCIENCE AND TECHNOLOGY, priority 2022, published 2025).
Read-outs that look alike come from different tables or passages of the source. [Ψ] = pseudouridine

B1: GL11 mimic: chemically modified GL2 double-stranded RNA (5-methyluridine); antisense SEQ ID NO: 21, sense SEQ ID NO: 25, length 41 (nucleic acid)
antisense: AUAAGGAAUCUGUAGAAGTUCGAUUCUUCUUGGGCUUACCA
sense: UGGUAAGCCCAAGAAGAAUCGAACUUCUACAGAUUCCUUAU
modifications: RNA, backbone not given here; further chemistry not fully specified
B2: GL1 mimic: double-stranded RNA from Ganoderma lucidum tRNA-Ile(GAU); antisense SEQ ID NO: 2, sense SEQ ID NO: 11, length 33 (nucleic acid)
antisense: AAGCCUAUAAUUUAAAGGUAGAAUAAUUUCUUG
sense: CAAGAAAUUAUUCUACCUUUAAAUUAUAGGCUU
modifications: RNA, backbone not given here
B3: GL2 mimic: double-stranded RNA from Ganoderma lucidum tRNA-Ile(GAU); antisense SEQ ID NO: 3, sense SEQ ID NO: 12, length 41 (nucleic acid)
antisense: AUAAGGAAUCUGUAGAAGUUCGAUUCUUCUUGGGCUUACCA
sense: UGGUAAGCCCAAGAAGAAUCGAACUUCUACAGAUUCCUUAU
modifications: RNA, backbone not given here
B4: GL10 mimic: chemically modified GL2 double-stranded RNA (5-methyluridine and pseudouridine); antisense SEQ ID NO: 20, sense SEQ ID NO: 24, length 41 (nucleic acid)
antisense: AUAAGGAAUCUGUAGAAGTUCGAUUCUUCUUGGGCUUACCA
sense: UGGUAAGCCCAAGAAGAAUCGAACUUCUACAGAUUCCUUAU
modifications: antisense: RNA, [Ψ] at 20, backbone not given here; sense: RNA, backbone not given here; further chemistry not fully specified

Legend:
Assay type in all cases: cell-based, human
[1] = system: HCT-8 cells; assay: MTT cytotoxicity analysis, colorectal cancer cells HCT-8; conditions: for IC50: HCT-8 colorectal cancer cells, 48 hours of treatment, Lipofectamine RNAiMAX transfection reagent, MTT, read-out: Median inhibitory concentration IC50; for inhibition of growth and proliferation (cell viability vs control and RNAiMAX group): colon cancer cells HCT-8, 6.25-200 nM, 48 hours, FIG. 6-8
Method: (§1) A2780 and HCT-8 cell lines were cultured in RPMI 1640 medium containing 10% FBS and 1% penicillin/streptomycin. HepG2 cell lines were cultured in MEM medium containing 10% FBS and 1% penicillin/streptomycin. All the above cell lines were cultured at 37° C. in a humidified atmosphere containing 5% CO2.
(§2) In the cytotoxicity analysis, exponentially growing cells of each cancer cell line were inoculated at a density of 5000 cells per well in a 100 μL medium in a 96-well microplate and allowed to adhere for 24 hours prior to treatment. Then obtained RNA molecules at successive concentrations with a nucleic acid transfer vector, namely, Lipofectamine™ RNAiMAX transfection reagent (Thermo Fisher Scientific, United States), were added to the cells. After 48 hours of treatment, MTT solution (50 μL per well, 1 mg/mL solution) was added to each well and incubated at 37° C. for 4 hours. Then 200 μL of dimethyl sulfoxide (DMSO) was added, and an optical density of the resulting solution was measured via calorimetry by using SpectraMax 190 microplate reader (Molecular Devices, United States) at 570 nm. Dose-response curves were obtained and IC50 values were calculated via GraphPad Prism 5 (GraphPad, United States). Each experiment was performed three times.
(§3) Before addition of the MTT solution, the inventor determined the cytotoxic effects and IC 50 of the GL1, GL2, GL4, and GL6 mimics at different concentrations of 6.25 nM, 12.5 nM, 25 nM, 50 nM, 100 nM, and 200 nM on A2780, HCT-8 and HepG2 cells. After 48 hours of the treatment of the double-stranded RNA molecules, the cell viability of these cells was compared with that of the control group and the RNAiMAX group. Paclitaxel was used in a comparative example. […] The results were compared with those of the control group and the RNAiMAX group using the transfection agent. For IC50, refer to Table 4. Paclitaxel was used in a comparative example.
(§4) Then the inventor specifically determined the cytotoxic effects and IC50 of the RNA molecules GL2 mimic and different chemically modified GL10, GL11 and GL12 mimics at different concentrations of 6.25 nM, 12.5 nM, 25 nM, 50 nM, 100 nM, and 200 nM on A2780, HCT-8 and HepG2 cells. […] For IC50, refer to Table 5. Paclitaxel was used in a comparative example.

[2] = system: HepG2 cells; assay: MTT cytotoxicity analysis, liver cancer cells HepG2; conditions: for IC50: HepG2 liver cancer cells, 48 hours of treatment, Lipofectamine RNAiMAX transfection reagent, MTT, read-out: Median inhibitory concentration IC50; for inhibition of growth and proliferation (cell viability vs control and RNAiMAX group): liver cancer cells HepG2, 6.25-200 nM, 48 hours, FIG. 6-8
Method: as §1, §2, §3, §4

[3] = system: A2780 cells; assay: MTT cytotoxicity analysis, ovarian cancer cells A2780; conditions: for inhibition of growth and proliferation (cell viability vs control and RNAiMAX group): ovarian cancer cells A2780, 6.25-200 nM, 48 hours, FIG. 6-8; for IC50: A2780 ovarian cancer cells, 48 hours of treatment, Lipofectamine RNAiMAX transfection reagent, MTT, read-out: Median inhibitory concentration IC50
Method: as §1, §2, §3, §4

Molecule	IC50 [1]	inhibition of growth and proliferation (cell viability vs control and RNAiMAX group) [1]	IC50 [2]	inhibition of growth and proliferation (cell viability vs control and RNAiMAX group) [2]	inhibition of growth and proliferation (cell viability vs control and RNAiMAX group) [3]	IC50 ([1]; Homo sapiens)	IC50 ([2]; Homo sapiens)	IC50 ([3]; Homo sapiens)	IC50 [3]	inhibition of growth and proliferation (cell viability vs control and RNAiMAX group) ([1]; listed as GL2)	inhibition of growth and proliferation (cell viability vs control and RNAiMAX group) ([2]; listed as GL2)	inhibition of growth and proliferation (cell viability vs control and RNAiMAX group) ([3]; listed as GL2)
GL6 mimic: double-stranded RNA from Ganoderma lucidum tRNA-Ile(GAU); antisense SEQ ID NO: 7, sense SEQ ID NO: 16, length 22 (antisense UCGAUUCUUCUUGGGCUUACCA; sense UGGUAAGCCCAAGAAGAAUCGA; RNA, backbone not given here)	600 nM	effective in inhibiting growth and proliferation	400 nM	effective in inhibiting growth and proliferation	effective in inhibiting growth and proliferation							
GL4 mimic: double-stranded RNA from Ganoderma lucidum tRNA-Ile(GAU); antisense SEQ ID NO: 5, sense SEQ ID NO: 14, length 22 (antisense AAGCCUAUAAUUUAAAGGUAGA; sense UCUACCUUUAAAUUAUAGGCUU; RNA, backbone not given here)	950 nM	effective in inhibiting growth and proliferation	350 nM	effective in inhibiting growth and proliferation	effective in inhibiting growth and proliferation							
GL8: double-stranded RNA from Ganoderma lucidum tRNA-Ile(GAU); antisense SEQ ID NO: 9, sense SEQ ID NO: 18, length 22 (antisense AGUUCGAUUCUUCUUGGGCUUA; sense UAAGCCCAAGAAGAAUCGAACU; RNA, backbone not given here)		have the effect of inhibiting the growth and proliferation of cancer cells		have the effect of inhibiting the growth and proliferation of cancer cells	have the effect of inhibiting the growth and proliferation of cancer cells							
GL7: double-stranded RNA from Ganoderma lucidum tRNA-Ile(GAU); antisense SEQ ID NO: 8, sense SEQ ID NO: 17, length 19 (antisense AUUCUUCUUGGGCUUACCA; sense UGGUAAGCCCAAGAAGAAU; RNA, backbone not given here)		have the effect of inhibiting the growth and proliferation of cancer cells		have the effect of inhibiting the growth and proliferation of cancer cells	have the effect of inhibiting the growth and proliferation of cancer cells							
GL9: double-stranded RNA from Ganoderma lucidum tRNA-Ile(GAU); antisense SEQ ID NO: 10, sense SEQ ID NO: 19, length 19 (antisense UCGAUUCUUCUUGGGCUUA; sense UAAGCCCAAGAAGAAUCGA; RNA, backbone not given here)		have the effect of inhibiting the growth and proliferation of cancer cells		have the effect of inhibiting the growth and proliferation of cancer cells	have the effect of inhibiting the growth and proliferation of cancer cells							
GL5: double-stranded RNA from Ganoderma lucidum tRNA-Ile(GAU); antisense SEQ ID NO: 6, sense SEQ ID NO: 15, length 19 (antisense AAGCCUAUAAUUUAAAGGU; sense ACCUUUAAAUUAUAGGCUU; RNA, backbone not given here)		have the effect of inhibiting the growth and proliferation of cancer cells		have the effect of inhibiting the growth and proliferation of cancer cells	have the effect of inhibiting the growth and proliferation of cancer cells							
CC(=O)O[C@H]1C(=O)[C@@]2(C)[C@H]([C@H](OC(=O)c3ccccc3)[C@]3(O)C[C@H](OC(=O)[C@H](O)[C@@H](NC(=O)c4ccccc4)c4ccccc4)C(C)=C1C3(C)C)[C@]1(OC(C)=O)CO[C@@H]1C[C@@H]2O [Taxol, Paclitaxel, reference compound]						621 nM	678 nM	73.2 nM				
B1	31.5 nM	have a dose-dependent effect on inhibiting the growth and proliferation	85.3 nM	have a dose-dependent effect on inhibiting the growth and proliferation	have a dose-dependent effect on inhibiting the growth and proliferation				17.2 nM			
B2	84 nM	effective in inhibiting growth and proliferation	350 nM	effective in inhibiting growth and proliferation	effective in inhibiting growth and proliferation				225 nM			
B3	36.3 nM	have a dose-dependent effect on inhibiting the growth and proliferation	240 nM	have a dose-dependent effect on inhibiting the growth and proliferation	have a dose-dependent effect on inhibiting the growth and proliferation				57.2 nM	effective in inhibiting growth and proliferation	effective in inhibiting growth and proliferation	effective in inhibiting growth and proliferation
B4	39.6 nM	have a dose-dependent effect on inhibiting the growth and proliferation	144 nM	have a dose-dependent effect on inhibiting the growth and proliferation	have a dose-dependent effect on inhibiting the growth and proliferation				51.9 nM			
